Experimental data as given in the nanobody polyreactivity screen of Harvey et al. (2022).

Experiment: yeast display, Sf9 membrane polyspecificity reagent, FACS + sequencing; frameworks hold sequencing errors
Summary of the method: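 Sorting gates, low and high (top ~1%), were placed on anti-HA fluorescence to track expression and on streptavidin fluorescence to track reagent binding. A clone's polyreactivity label is taken from the gate it came out of. The reagent was 10% biotinylated, detergent-solubilized Sf9 membrane, applied for 1 hour at 4 °C to galactose-induced yeast display cells.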

Row | Sequence | polyreactivity (PSR sort gate)
1 | QVQLVESGGGLVQAGGSLRLSCAASGSTFDIYAMGWYRQAPGKERELVAAISNSGDTYYADSVKGRFTISRDNAKNTVYLQMNSLKPEDTAVYYCNADFHDWFDYWGQGTQVTVSS | high polyreactivity
2 | QVQLVESGGGLVQAGGSLRLSCAASGSIFGWYAMGWYRQAPGKDWELVAASRRGGSTNYADSVKGRFTISRDNAKNTVYFQMNSLIPEATAVYYCAAGKSGYSKRIFRYSFDYWGQGTQVTVSS | high polyreactivity
3 | QVQLVESGGGLVQAGGSLRLSCAASGRIFHSNTKGWYRQAPGKERELVARISSVGSTNYADSVKGRFTISRDNAKNTVYLQMNSQKPEDTAVYYCAAQRYYTQSSYYLALYDFWGQGTQVTVSS | low polyreactivity
4 | QVQLVESGGGIVQAGGSLRLRCAASGSTFYLNVMGWYRQAPGQERELVAAISSGDGSTYYADSVKGRFTISRDNAKNTVYLQMNSLKPEDTAVYYCAAEPDTEVDYDYWGQGTQVTVSS | low polyreactivity
5 | QVQLVESGGGLVQAGGSLRLSCAASGIIFTGYAMGWYRQAPGKERELVAAISESGGSTYYADSVKGRFTISRDNAKNTVYLQMNSLKPEDTAVDYCAVDALSITYGYWGQGTQVTVSS | low polyreactivity
6 | QVQLVESGGGLVQAGGSLRLSCAASGRIFYVYTMGWYRQAPGKERELVAAITWRGGSTYYADSVKGRFTISRDNAKNTVYLQMNSLKPEDTAVYYCATAQWVGYWDDYWGQGTQVTVSS | high polyreactivity
7 | QVHLVQSGGGLVQAGGSLRLSCAASGRTFYIYAMGCYRQAPGKERELVAAISWRGGSTYYANSVKGRFTISLDHAKYTVYLQMNSLKPEDTAVYYCAAEGAHVKWYRNWWEYDDWGQGTQVTVSS | high polyreactivity
8 | QVQLVESGGGLVQAGGSLGLSCAASGLIFRKYAMGWYRQAPGKERELVATINRSGGSTYYADSVKGRFTISRDNAKNTVYLQMNSLKPEATAVYYCATDRLSYGYKPGYTFYYWEQGTQVTVSS | high polyreactivity
9 | QVQLVESGGGLVQAGGSLRLSCAASGYTSRTNAMGWYIQAPGKERELVAAITWRGTRTYYADSVKGRFTISRDNAKNTVYLQMNSLKPEDTAVYYCATQWIRKYDYWGQGTQVTVSS | high polyreactivity
10 | QVQLVESGGGLDQAVGSLPLSCAASGRTFYLNTRGWYREAPWKEREFVAAISATAGRTYYADSVKGRFTISRDNAKNTVYLQMYSLKPEDTAVYYCAAVPLRIRWPNSSPALDYWGQGTQVTVSS | high polyreactivity
11 | QDQLVESGGGLVQAGGSLRLSCAASGFTFSRYAMGWYRQAPGKERELVAAINYSGGSTYYADSVKGRFTISRDNAKNTVYLQMNSLKPEDTAVYYCATGGTKPAYKGHYYWGQGTQVTVSS | low polyreactivity
12 | QVQLVESGGGLVQAGGSLRLSCAASGRIFGDNAMGWYRQAPGKERELVAAITSGGNTYYADSVKGRFTISRDNAKNTVYLQMNSLKPEDTAVYYCNVADWRRWGYDYWGQGTQVTVSS | low polyreactivity
13 | QVQLVESGGGLVQGGGSLRLSCAASGSTFWANAMGWYRQATGKERELVAGITWNAGSTYYADSVKGRFTISRDNAKNPVYLQMNRLKPEDTAVFYCAASYHFQGWGPGYNSWGQGTQVTVSS | low polyreactivity
14 | QVQLVESGGGLVQAGGSLRLSCAASGITVYVNVMGWYRQAPGKERELVAGISYSGGSTYYADSVKGRFTISRDNAKNTVYLQMNSLKPEDTAVYYCAADYWYYGSPVSRPYYYWGQGTQVTVSS | high polyreactivity
15 | QVQRVESGGGLVQAGGSLRLSCAASGRTFPPYAMGWYRQAPGKERELVASIRRGGSTHYADSVKGRFTISRDNAKNTVYLQMNSLKPEDTAVYYCNADVIFGYTHYNYWGQGTQVTVSS | high polyreactivity
16 | QVQLVESGGGLVQAGGSLRISCAASGSIFDTNPMGWYRQAPGKERELVAAITSSGASTYYADSVKGRFTISRDNAKNTVYLQMNSLKPEDTAVYYCAADGAVDGGYWGQGTQVTVSS | low polyreactivity
17 | QVQLVESGGGLVQAGGSLRLSCAASGRIFGYYVMGWYRQAPGTERELVAAITGGGGSTYYADSVKGRFTISRDNAKNTVYLQMNSLKPEDNAVYYCAADLEDTTYEYDYWGQGTQVTVSS | high polyreactivity
